# Assay results: patent US20100111941A1, “METHODS FOR TREATING CANCER” (priority 2006, published 2010)
# B1: rNAPc2/pro: recombinant protein having the amino acid sequence of rNAPc2 modified to add a proline residue to the C-terminus (SEQ ID NO: 4) (protein, listed as Ancylostoma caninum)
# chain: KATMQCGENEKYDSCGSKECDKKCKYDGVEEEDDEEPNVPCLVRVCHQDCVCEEGFYRNKDDKCVSAEDCELDNMDFIYPGTRNP
# B2: rNAPc2: recombinant protein of the NAP family, single chain, non-glycosylated 85 amino acid protein (SEQ ID NO: 3) (protein, listed as Ancylostoma caninum)
# chain: KATMQCGENEKYDSCGSKECDKKCKYDGVEEEDDEEPNVPCLVRVCHQDCVCEEGFYRNKDDKCVSAEDCELDNMDFIYPGTRN
# B3: NAP5: 77-amino acid NAP protein (SEQ ID NO: 1) originally isolated from the hookworm Ancylostoma caninum (protein, listed as Ancylostoma caninum)
# chain: KAYPECGENEWLDDCGTQKPCEAKCNEEPPEEEDPICRSRGCLLPPACVCKDGFYRDTVIGDCVREEECDQHEIIHV
# B4: NAP6: 75-amino acid NAP protein (SEQ ID NO: 2) originally isolated from the hookworm Ancylostoma caninum (protein, listed as Ancylostoma caninum)
# chain: LAYPECGENEWLDVCGTKKPCEAKCSEEEEEDPICRSFSCPGPAACVCEDGFYRDTVIGDCVKEEECDQHEIIHV
# Tests used:
# [1] = system: HCT116 tumor xenografts (human colorectal cancer cells); conditions: for tumor weight reduced by, compared to vehicle control: day 14, rNAPc2/pro 300 μg/kg daily IP, 5-FU 10 mg/kg every-other-day IP, AVASTIN 0.5 mg/kg twice-weekly IP, 14 days, 6 mice/group
# Experimental: To determine the effect of rNAPc2/pro in combination with 5-fluorouracil (5-FU) in colorectal cancer, a murine xenograft colorectal tumor model was used. Human colorectal cancer cells (HCT116) were cultured in DMEM medium supplemented with 10% fetal bovine serum (FBS), harvested at log growth phase, enumerated and resuspended in HBSS buffer. Eight to ten week old female nude mice (NU/NU) were inoculated subcutaneously with 1×10^7 cells/mouse in a volume of 100 μl. Tumors were allowed to develop to an average size of 50 to 100 mm^3 before the treatment started (defined as day 0). HCT116 tumor xenograft-bearing mice were randomized into various treatment conditions and the treatment regimens lasted for 14 days.
# The mice were treated as follows (6 mice/group):
# 2)rNAPc2/pro (300 μg/kg, daily IP injection for 14 days);
# 3) LOVENOX® (1.5 mg/kg, daily IP injection for 14 days);
# 4) 5-FU (10 mg/kg, every-other-day IP injection for 14 days);
# 5) AVASTIN® (0.5 mg/kg, twice-weekly IP injection for 14 days);
# 10) LOVENOX®+AVASTIN®; and
# The mice were monitored every-other-day for body weight, signs of morbidity (i.e., hemorrhage) and mortality. On day 14, mice were extirpated for HCT116 tumor xenografts and the tumors were weighed and measured. Tumor size was calculated as follows: tumor volume (size)=(length)×(width^2)/2 (mm^3).
# [2] = system: Human colorectal cancer cells (HCT116); test: murine colorectal cancer-hepatic metastasis mouse model (HCT116); format: in vivo, nude mice (NU/NU); conditions: for Hepatic metastasis-free events: rNAPc2/pro 300 μg/kg daily IP for 28 days, CPT-11 100 mg/kg once-weekly IP for 4 weeks, livers removed day 42, 8 mice/group
# Experimental: To determine the effect of rNAPc2/pro in treating hepatic tumor metastasis, a murine colorectal cancer-hepatic metastasis mouse model was used.
# (§1) The mice were treated as follows (8 mice/group):
# 2) HCT116/vehicle control;
# 3) HCT116/rNAPc2/pro (300 μg/kg, daily IP injection for 28 days);
# 4) HCT116/CPT-11 (100 mg/kg, once-weekly IP injection for 4 weeks); and
# On day 42, the livers were surgically removed, weighed and the number of liver surface metastases were counted in a blinded fashion. The other internal organs were examined for signs of hemorrhage. […] In some of the mice, no hepatic metastases were observed (Table 2).
# [3] = system: lung carcinoma tumors and melanoma tumors; conditions: mouse models; Hembrough et al., Cancer Res. 63:2997-3000 (2003); cited from earlier work
# [4] = system: Murine colorectal cancer cells (CT26); test: murine colorectal cancer-pulmonary metastasis mouse model (CT26); format: in vivo, BALB/c mice; conditions: for Number of mice with no observable lung surface metastases: 8 mice/group
# Experimental: To determine the effect of rNAPc2/pro in treating pulmonary tumor metastasis, a murine colorectal cancer-pulmonary metastasis mouse model was used. […] Nine to eleven week old female syngenic BALB/c mice were inoculated via tail vein injection with 1×10^6 cells/mouse in a volume of 100 μl (defined as day 0).
# as §1
# 3) CT26/rNAPc2/pro (10 μg/kg/day);
# 4) CT26/rNAPc2/pro (30 μg/kg/day);
# 5) CT26/rNAPc2/pro (100 μg/kg/day);
# 6) CT26/rNAPc2/pro (300 μg/kg/day);
# 7) CT26/rNAPc2/pro (1 mg/kg/day);
# 8) CT26/rNAPc2/pro (2.5 mg/kg/day); and
# 9) CT26/LOVENOX® (1.5 mg/kg/day, IP injection).
# On day 11, the lungs were surgically removed, weighed and the number of lung surface metastases were counted in a blinded fashion. The other internal organs were examined for signs of hemorrhage. […] In some of the mice, no lung surface metastases were observed (Table 1). rNAPc2/pro was well-tolerated up to 2.5 mg/kg/day in mice with no hemorrhage-related mortality. […] No significant difference in animal body weight was observed between all experimental groups.
# [5] = target: T1, fVIIa/TF complex (Homo sapiens, UniProt P08709+P13726); conditions: when fXa, or a catalytically active or inactive derivative thereof, is present; cited from earlier work
# T1 construct: Lyophilized, purified, recombinant human fVlla is reconstituted in HBS
# T1 sequence (P08709 213-466 limits assumed): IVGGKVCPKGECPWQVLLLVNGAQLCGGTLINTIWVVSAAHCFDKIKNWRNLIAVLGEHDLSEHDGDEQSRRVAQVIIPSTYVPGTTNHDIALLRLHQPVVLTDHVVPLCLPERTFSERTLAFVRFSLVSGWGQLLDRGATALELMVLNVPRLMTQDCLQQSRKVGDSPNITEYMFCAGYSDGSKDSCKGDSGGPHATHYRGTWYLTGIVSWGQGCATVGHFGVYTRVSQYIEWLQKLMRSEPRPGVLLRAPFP
# T1 sequence (P08709 61-212 limits assumed): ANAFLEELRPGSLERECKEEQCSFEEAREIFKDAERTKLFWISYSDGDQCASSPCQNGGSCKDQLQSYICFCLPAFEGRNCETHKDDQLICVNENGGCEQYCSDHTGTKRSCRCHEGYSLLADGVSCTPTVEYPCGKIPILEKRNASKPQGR
# T1 sequence (P13726 33-295): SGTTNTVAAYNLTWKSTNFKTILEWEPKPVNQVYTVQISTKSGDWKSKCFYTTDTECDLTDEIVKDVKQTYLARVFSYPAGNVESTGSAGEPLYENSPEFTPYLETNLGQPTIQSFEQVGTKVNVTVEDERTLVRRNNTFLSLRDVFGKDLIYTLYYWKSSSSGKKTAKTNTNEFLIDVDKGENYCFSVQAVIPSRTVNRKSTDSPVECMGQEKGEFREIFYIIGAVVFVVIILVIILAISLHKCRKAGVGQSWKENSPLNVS
# T1 sequence (P00742 235-488 partner limits assumed): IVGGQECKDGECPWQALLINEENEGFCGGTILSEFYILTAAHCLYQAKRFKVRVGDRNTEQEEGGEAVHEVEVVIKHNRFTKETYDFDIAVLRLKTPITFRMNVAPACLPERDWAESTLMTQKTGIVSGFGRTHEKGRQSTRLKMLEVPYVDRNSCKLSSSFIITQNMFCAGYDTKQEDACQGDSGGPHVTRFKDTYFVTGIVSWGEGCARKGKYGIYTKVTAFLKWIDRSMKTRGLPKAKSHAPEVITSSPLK
# T1 sequence (P00742 41-179 partner limits assumed): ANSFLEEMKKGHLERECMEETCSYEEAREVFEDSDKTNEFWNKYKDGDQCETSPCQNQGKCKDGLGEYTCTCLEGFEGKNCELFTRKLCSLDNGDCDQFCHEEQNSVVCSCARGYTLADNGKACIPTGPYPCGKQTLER
# [6] = system: angiogenesis; conditions: Hembrough et al., Cancer Res. 63:2997-3000 (2003); cited from earlier work
# [7] = system: intestinal adenomas and adenocarcinomas; test: murine spontaneous intestinal neoplasia mouse model (Min mouse)
# Experimental: To determine the effect of rNAPc2/pro in treating intestinal adenomas and adenocarcinomas, a murine spontaneous intestinal neoplasia mouse model was used: the Min mouse (The Jackson Laboratory, Bar Harbor, Me., USA).
# Four to five week old Apc^Min/+ or syngenic wild-type control (age- and sex-matched) were randomized into various treatment conditions and the treatment regimens lasted for 10 to 11 weeks.
# The mice were treated as follows:
# 1) Wild-type/vehicle control (3 mice);
# 2) Wild-type/rNAPc2/pro (100 μg/kg, daily IP injection) (3 mice);
# 3) Apc^Min/+/vehicle control (6 mice);
# 4) Apc^Min/+/rNAPc2/pro (6 mice); and
# 5) Apc^Min/+/LOVENOX® (500 μg/kg, daily IP injection) (6 mice).
# The mice were monitored every-other-day for body weight, signs of morbidity (i.e. hemorrhage) and mortality. On week 16, the intestines were removed, separated into proximal, middle and distal small intestine and colon, formed into “Swiss rolls” and processed for analysis. Mice were injected with 4 mg/mouse BrdU 2 h prior to harvest.
# [8] = target: T2, Factor Xa (Homo sapiens, UniProt P00742); conditions: selective = at least 10-fold higher potency than on related enzymes; cited from earlier work
# T2 construct: made in house
# T2 sequence (P00742 235-488 limits assumed): as the sequence (P00742 235-488 partner limits assumed) above
# T2 sequence (P00742 41-179 limits assumed): as the sequence (P00742 41-179 partner limits assumed) above
molecule,measurement,setting,value
"O=c1[nH]cc(F)c(=O)[nH]1 [5-FU, 5-fluorouracil, reference compound]","tumor weight reduced by, compared to vehicle control",[1],41%
"CCc1c2c(nc3ccc(OC(=O)N4CCC(N5CCCCC5)CC4)cc13)-c1cc3c(c(=O)n1C2)COC(=O)[C@]3(O)CC [CPT-11, irinotecan, reference compound]",Hepatic metastasis-free events,[2],0%
AVASTIN®: anti-VEGF antibody bevacizumab (Genentech) [reference compound],"tumor weight reduced by, compared to vehicle control",[1],63%
TFPI: reported with rNAPc2 by Hembrough et al. to decrease tumor growth in mouse models [reference compound],growth of lung carcinoma tumors and melanoma tumors,[3],allegedly decrease the growth
B1,"tumor weight reduced by, compared to vehicle control",[1],31%
same,tolerability (hemorrhage or other adverse effects),[1]; doses and dosing regimens of rNAPc2/pro used in the murine model of colorectal cancer,well tolerated by the recipient mice without major complications of hemorrhage or other adverse effects
same,Number of mice with no observable lung surface metastases,"[4]; 10 μg/kg/day, day 11",1
same,Number of mice with no observable lung surface metastases,"[4]; 30 μg/kg/day, day 11",0
same,Number of mice with no observable lung surface metastases,"[4]; 100 μg/kg/day, day 11",1
same,Number of mice with no observable lung surface metastases,"[4]; 300 μg/kg/day, day 11",1
same,Number of mice with no observable lung surface metastases,"[4]; 1 mg/kg/day, day 11",0
same,local hemorrhage in internal organs,"[4]; 2.5 mg/kg rNAPc2/pro, 1.5 mg/kg LOVENOX, some of the mice",some local hemorrhage was noticed in internal organs
same,Number of mice with no observable lung surface metastases,"[4]; 2.5 mg/kg/day, day 11",1
same,number of lung surface metastases,"[4]; compared to saline control mice, dose-dependent (10 μg/kg/day to 2.5 mg/kg/day), day 11, FIG. 8",reduced the number of lung surface metastases
same,lung mass,"[4]; compared to saline control mice, dose-dependent, day 11, FIG. 9",reduced lung mass
same,dose well-tolerated with no hemorrhage-related mortality,"[4]; mice, 11 days of treatment",up to 2.5 mg/kg/day
same,number of liver surface metastases,"[2]; 300 μg/kg daily IP for 28 days, compared to vehicle control mice, day 42, FIG. 10",reduced the number of liver surface metastases
same,liver mass,"[2]; 300 μg/kg daily IP for 28 days, compared to vehicle control mice, day 42, FIG. 11",reduced liver mass
same,Hepatic metastasis-free events,[2],0%
same,effect with CPT-11 in inhibiting hepatic metastases,[2]; rNAPc2/pro 300 μg/kg daily IP in combination with CPT-11 100 mg/kg once-weekly IP,synergistic effect
same,selective inhibition of the fVIIa/TF complex,[5],selective inhibition of the fVIIa/TF complex
B2,growth of lung carcinoma tumors and melanoma tumors,[3],allegedly decrease the growth
same,inhibition of angiogenesis,[6],potent inhibitor of angiogenesis
same,selective inhibition of the fVIIa/TF complex,[5],selective inhibition of the fVIIa/TF complex
same,formation of intestinal adenomas and adenocarcinomas,"[7]; Apc^Min/+ mice, 100 μg/kg daily IP, long-term administration (10 to 11 weeks), analysis on week 16",suppressed formation of intestinal adenomas and adenocarcinomas
same,tolerability (major hemorrhage or other adverse effects),"[7]; dosing regimens used in these studies, recipient mice",well-tolerated up to a three month period
B3,selective inhibition of Factor Xa,[8],selective inhibition of Factor Xa
B4,selective inhibition of Factor Xa,[8],selective inhibition of Factor Xa
